Among the data in paper PMC6642547 are Kd values, retold here.

The target in this assay is human GITR-Fc (human) (UniProt Q9Y5U5). Briefly: not stated; binding to and dissociation from the GITR-Fc receptors measured in real time, equilibrium binding constants (KD) calculated; instrument and who was immobilised not told in what was shown.
human GITR-Fc (human), sequence (Q9Y5U5 26-162): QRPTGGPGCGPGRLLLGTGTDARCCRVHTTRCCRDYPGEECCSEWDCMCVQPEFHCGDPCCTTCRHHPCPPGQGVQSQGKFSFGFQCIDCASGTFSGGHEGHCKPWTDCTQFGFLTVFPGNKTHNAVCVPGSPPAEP

With “HERA-GITRL (hexavalent TNF receptor agonist; single-chain GITRL-receptor-binding-domain fused to a silenced human IgG1 Fc) (from UniProt Q9UNG2 56-177; Q9UNG2 56-177; Q9UNG2 56-177) (Fc fusion)”, the dissociation constant (Kd) was 0.366 nM.

The Kd is the concentration at which binding is half-saturated.
